Assays:
[1] = target: MUC1 on MDA-MB-468.lucGFP cells (UniProt P15941 24-1255); assay: cell-based or functional assay
[2] = target: T1, His-tagged p62/p58 MUC1 protein (UniProt P15941 1036-1155, limits assumed); assay: flow cytometry of CAR-T cells stained with His-tagged p62/p58 MUC1 protein and anti-His secondary antibody, day 19
T1 construct: domain: p62/p58; Soluble staining reagent for the CAR on T cells, detected with an anti-His secondary antibody; not shown: His tag
T1 sequence (looked up): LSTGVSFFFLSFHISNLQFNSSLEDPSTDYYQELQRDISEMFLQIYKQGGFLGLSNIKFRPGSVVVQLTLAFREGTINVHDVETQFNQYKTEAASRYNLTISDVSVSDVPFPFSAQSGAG
Text: (§1) MUC1-C candidate CARs were subcloned into a tricistronic piggyBac transposon (EF1alpha promoter-iC9 Safety Switch-T2A-MUC1-C CAR-T2A-DHFR selection gene) and CAR-T cells were produced using pan T cells from a normal human blood donor as described herein (FIG. 6). Expression of each candidate CAR on the surface of piggyBac-modified cells was confirmed by FACS staining 19 days post-transposon delivery using an His-tagged p62/p58 MUC1 protein, followed by anti-His secondary antibody (FIG. 6). Specifically, cells were examined by flow cytometry for surface-expression of CAR on either mock transposed (blue) or anti-CD3/CD28 bead re-activated (red) cells (activation for 48 hours) that received transposon encoding CAR and data are shown as overlaid histograms; numbers represent percentage of cells expressing CAR on cell surface. All candidate MUC1-C CARs were expressed and detected on the surface of piggyBac-produced CAR-T cells (FIG. 7).

[3] = target: T1, His-tagged p62/p58 MUC1 protein; assay: flow cytometry of CAR-T cells (anti-CD3/CD28 bead re-activated, 48 hours) stained with His-tagged p62/p58 MUC1 protein and anti-His secondary antibody
Text: as §1

Sequence of MUC1 on MDA-MB-468.lucGFP cells (P15941 24-1255): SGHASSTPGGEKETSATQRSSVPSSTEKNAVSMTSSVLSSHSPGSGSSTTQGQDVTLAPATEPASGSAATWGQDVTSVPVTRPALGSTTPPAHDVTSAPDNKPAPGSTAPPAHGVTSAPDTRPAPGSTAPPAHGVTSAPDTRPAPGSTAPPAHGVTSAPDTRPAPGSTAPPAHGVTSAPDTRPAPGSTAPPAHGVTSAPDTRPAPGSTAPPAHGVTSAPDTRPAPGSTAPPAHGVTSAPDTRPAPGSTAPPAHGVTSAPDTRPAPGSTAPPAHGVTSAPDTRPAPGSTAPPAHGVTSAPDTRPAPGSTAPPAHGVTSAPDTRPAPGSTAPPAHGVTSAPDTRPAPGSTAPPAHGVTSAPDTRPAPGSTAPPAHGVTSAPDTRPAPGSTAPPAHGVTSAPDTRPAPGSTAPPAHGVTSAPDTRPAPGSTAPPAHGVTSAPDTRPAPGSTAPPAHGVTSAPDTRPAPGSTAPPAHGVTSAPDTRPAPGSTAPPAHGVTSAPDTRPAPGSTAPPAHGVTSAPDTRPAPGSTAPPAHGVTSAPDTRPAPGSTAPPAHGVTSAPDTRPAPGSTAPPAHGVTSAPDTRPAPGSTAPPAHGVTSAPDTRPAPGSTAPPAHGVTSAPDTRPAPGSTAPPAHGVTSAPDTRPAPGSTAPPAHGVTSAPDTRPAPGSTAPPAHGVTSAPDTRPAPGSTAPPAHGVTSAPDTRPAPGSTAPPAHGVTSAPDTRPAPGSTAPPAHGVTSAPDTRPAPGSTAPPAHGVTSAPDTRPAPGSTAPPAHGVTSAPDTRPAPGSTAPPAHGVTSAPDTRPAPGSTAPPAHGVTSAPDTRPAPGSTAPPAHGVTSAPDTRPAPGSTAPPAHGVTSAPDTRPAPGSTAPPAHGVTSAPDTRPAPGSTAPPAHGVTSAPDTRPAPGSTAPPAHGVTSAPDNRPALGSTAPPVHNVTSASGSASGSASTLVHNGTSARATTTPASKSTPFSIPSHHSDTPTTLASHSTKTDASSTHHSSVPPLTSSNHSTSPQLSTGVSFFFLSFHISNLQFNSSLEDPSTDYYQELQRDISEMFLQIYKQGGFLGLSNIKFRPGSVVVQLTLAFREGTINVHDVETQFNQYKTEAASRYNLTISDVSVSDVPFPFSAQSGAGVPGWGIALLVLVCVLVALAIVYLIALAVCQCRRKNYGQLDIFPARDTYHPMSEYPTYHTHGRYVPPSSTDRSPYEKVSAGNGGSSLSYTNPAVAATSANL

B1: "L2H2" CAR (humanized MUC1-C scFv chimeric antigen receptor) (other)
chain: EILLTQSPDFQSVTPKEKVTFTCRASQSIGTSIHWYQQKPNQSPKLLIKYASESISGVPSRFSGSGSGTDFTLTINSVESEDIADYYCQQSNNWPLTFGQGTKLEIKGGGGSGGGGSGGGGSQVQLVQSGAEVKKPGSSVKISCKTSGYAFSNFWMNWVRQAPGQGLEWIGQIYPGDGDTNYNGKFKGRVTLTADKSTSTAYMELSSLRSEATAVYFCARSYYRSAWFAYWGQGTLVTVSSTTTPAPRPPTPAPTIASQPLSLRPEACRPAAGGAVHTRGLDFACDIYIWAPLAGTCGVLLLSLVITLYCKRGRKKLLYIFKQPFMRPVQTTQEEDGCSCRFPEEEEGGCELRVKFSRSADAPAYKQGQNQLYNELNLGRREEYDVLDKRRGRDPEMGGKPRRKNPQEGLYNELQKDKMAEAYSEIGMKGERRRGKGHDGLYQGLSTATKDTYDALHMQALPPR
Target cell killing area under the curve (AUC) [1]: 482
MFI (non-activated cells) [2]: 717 MFI
MFI (activated cells) [3]: 3830 MFI

B2: "L1H3" CAR (humanized MUC1-C scFv chimeric antigen receptor) (other)
chain: EILLTQSPDFQSVTPKEKVTFTCRASQSIGTSIHWYQQKPNQSPKLLIKYASESISGVPSRFSGSGSGTDFTLTINSLESEDIATYYCQQSNNWPLTFGQGTKLEIKGGGGSGGGGSGGGGSQVQLVQSGAEVKKPGSSVKISCKTSGYAFSNFWMNWVKQRPGQGLEWIGQIYPGDGDTNYNGKFKGRATLTADKSTSTAYMELSSLRSEATAVYFCARSYYRSAWFAYWGQGTLVTVSSTTTPAPRPPTPAPTIASQPLSLRPEACRPAAGGAVHTRGLDFACDIYIWAPLAGTCGVLLLSLVITLYCKRGRKKLLYIFKQPFMRPVQTTQEEDGCSCRFPEEEEGGCELRVKFSRSADAPAYKQGQNQLYNELNLGRREEYDVLDKRRGRDPEMGGKPRRKNPQEGLYNELQKDKMAEAYSEIGMKGERRRGKGHDGLYQGLSTATKDTYDALHMQALPPR
Target cell killing area under the curve (AUC) [1]: 490
MFI (non-activated cells) [2]: 743 MFI
MFI (activated cells) [3]: 3320 MFI

B3: "L2H4" CAR (humanized MUC1-C scFv chimeric antigen receptor) (other)
chain: EILLTQSPDFQSVTPKEKVTFTCRASQSIGTSIHWYQQKPNQSPKLLIKYASESISGVPSRFSGSGSGTDFTLTINSVESEDIADYYCQQSNNWPLTFGQGTKLEIKGGGGSGGGGSGGGGSQVQLVQSGAEVKKPGSSVKISCKTSGYAFSNFWMNWVKQRPGQGLEWIGQIYPGDGDTNYNGKFKGRATLTADKSSSTAYMELSSLRSEATAVYFCARSYYRSAWFAYWGQGTLVTVSSTTTPAPRPPTPAPTIASQPLSLRPEACRPAAGGAVHTRGLDFACDIYIWAPLAGTCGVLLLSLVITLYCKRGRKKLLYIFKQPFMRPVQTTQEEDGCSCRFPEEEEGGCELRVKFSRSADAPAYKQGQNQLYNELNLGRREEYDVLDKRRGRDPEMGGKPRRKNPQEGLYNELQKDKMAEAYSEIGMKGERRRGKGHDGLYQGLSTATKDTYDALHMQALPPR
Target cell killing area under the curve (AUC) [1]: 518
MFI (non-activated cells) [2]: 729 MFI
MFI (activated cells) [3]: 3020 MFI

B4: "L2H3" CAR (humanized MUC1-C scFv chimeric antigen receptor) (other)
chain: EILLTQSPDFQSVTPKEKVTFTCRASQSIGTSIHWYQQKPNQSPKLLIKYASESISGVPSRFSGSGSGTDFTLTINSVESEDIADYYCQQSNNWPLTFGQGTKLEIKGGGGSGGGGSGGGGSQVQLVQSGAEVKKPGSSVKISCKTSGYAFSNFWMNWVKQRPGQGLEWIGQIYPGDGDTNYNGKFKGRATLTADKSTSTAYMELSSLRSEATAVYFCARSYYRSAWFAYWGQGTLVTVSSTTTPAPRPPTPAPTIASQPLSLRPEACRPAAGGAVHTRGLDFACDIYIWAPLAGTCGVLLLSLVITLYCKRGRKKLLYIFKQPFMRPVQTTQEEDGCSCRFPEEEEGGCELRVKFSRSADAPAYKQGQNQLYNELNLGRREEYDVLDKRRGRDPEMGGKPRRKNPQEGLYNELQKDKMAEAYSEIGMKGERRRGKGHDGLYQGLSTATKDTYDALHMQALPPR
Target cell killing area under the curve (AUC) [1]: 542
MFI (non-activated cells) [2]: 770 MFI
MFI (activated cells) [3]: 2880 MFI

B5: "L3H2" CAR (humanized MUC1-C scFv chimeric antigen receptor) (other)
chain: EILLTQSPDFQSVTPKEKVTFTCRASQSIGTSIHWYQQKPNQSPKLLIKYASESISGVPSRFSGSGSGTDFTLSINSVESEDIADYYCQQSNNWPLTFGQGTKLEIKGGGGSGGGGSGGGGSQVQLVQSGAEVKKPGSSVKISCKTSGYAFSNFWMNWVRQAPGQGLEWIGQIYPGDGDTNYNGKFKGRVTLTADKSTSTAYMELSSLRSEATAVYFCARSYYRSAWFAYWGQGTLVTVSSTTTPAPRPPTPAPTIASQPLSLRPEACRPAAGGAVHTRGLDFACDIYIWAPLAGTCGVLLLSLVITLYCKRGRKKLLYIFKQPFMRPVQTTQEEDGCSCRFPEEEEGGCELRVKFSRSADAPAYKQGQNQLYNELNLGRREEYDVLDKRRGRDPEMGGKPRRKNPQEGLYNELQKDKMAEAYSEIGMKGERRRGKGHDGLYQGLSTATKDTYDALHMQALPPR
notes: also called 13H2
Target cell killing area under the curve (AUC) [1]: 503
MFI (non-activated cells) [2]: 726 MFI
MFI (activated cells) [3]: 3620 MFI

B6: "L1H4" CAR (humanized MUC1-C scFv chimeric antigen receptor) (other)
chain: EILLTQSPDFQSVTPKEKVTFTCRASQSIGTSIHWYQQKPNQSPKLLIKYASESISGVPSRFSGSGSGTDFTLTINSLESEDIATYYCQQSNNWPLTFGQGTKLEIKGGGGSGGGGSGGGGSQVQLVQSGAEVKKPGSSVKISCKTSGYAFSNFWMNWVKQRPGQGLEWIGQIYPGDGDTNYNGKFKGRATLTADKSSSTAYMELSSLRSEATAVYFCARSYYRSAWFAYWGQGTLVTVSSTTTPAPRPPTPAPTIASQPLSLRPEACRPAAGGAVHTRGLDFACDIYIWAPLAGTCGVLLLSLVITLYCKRGRKKLLYIFKQPFMRPVQTTQEEDGCSCRFPEEEEGGCELRVKFSRSADAPAYKQGQNQLYNELNLGRREEYDVLDKRRGRDPEMGGKPRRKNPQEGLYNELQKDKMAEAYSEIGMKGERRRGKGHDGLYQGLSTATKDTYDALHMQALPPR
Target cell killing area under the curve (AUC) [1]: 498
MFI (non-activated cells) [2]: 737 MFI
MFI (activated cells) [3]: 2510 MFI

B7: "L1H2B" CAR (humanized MUC1-C scFv chimeric antigen receptor) (other)
chain: EILLTQSPDFQSVTPKEKVTFTCRASQSIGTSIHWYQQKPNQSPKLLIKYASESISGVPSRFSGSGSGTDFTLTINSLESEDIATYYCQQSNNWPLTFGQGTKLEIKGGGGSGGGGSGGGGSQVQLVQSGAEVKKPGSSVKISCKTSGYAFSNFWMNWVRQAPGQGLEWIGQIYPGDGDTNYNAKFKGRVTLTADKSTSTAYMELSSLRSEATAVYFCARSYYRSAWFAYWGQGTLVTVSSTTTPAPRPPTPAPTIASQPLSLRPEACRPAAGGAVHTRGLDFACDIYIWAPLAGTCGVLLLSLVITLYCKRGRKKLLYIFKQPFMRPVQTTQEEDGCSCRFPEEEEGGCELRVKFSRSADAPAYKQGQNQLYNELNLGRREEYDVLDKRRGRDPEMGGKPRRKNPQEGLYNELQKDKMAEAYSEIGMKGERRRGKGHDGLYQGLSTATKDTYDALHMQALPPR
Target cell killing area under the curve (AUC) [1]: 528
MFI (non-activated cells) [2]: 714 MFI
MFI (activated cells) [3]: 2990 MFI

B8: "L3H3" CAR (humanized MUC1-C scFv chimeric antigen receptor) (other)
chain: EILLTQSPDFQSVTPKEKVTFTCRASQSIGTSIHWYQQKPNQSPKLLIKYASESISGVPSRFSGSGSGTDFTLSINSVESEDIADYYCQQSNNWPLTFGQGTKLEIKGGGGSGGGGSGGGGSQVQLVQSGAEVKKPGSSVKISCKTSGYAFSNFWMNWVKQRPGQGLEWIGQIYPGDGDTNYNGKFKGRATLTADKSTSTAYMELSSLRSEATAVYFCARSYYRSAWFAYWGQGTLVTVSSTTTPAPRPPTPAPTIASQPLSLRPEACRPAAGGAVHTRGLDFACDIYIWAPLAGTCGVLLLSLVITLYCKRGRKKLLYIFKQPFMRPVQTTQEEDGCSCRFPEEEEGGCELRVKFSRSADAPAYKQGQNQLYNELNLGRREEYDVLDKRRGRDPEMGGKPRRKNPQEGLYNELQKDKMAEAYSEIGMKGERRRGKGHDGLYQGLSTATKDTYDALHMQALPPR
Target cell killing area under the curve (AUC) [1]: 518
MFI (non-activated cells) [2]: 696 MFI
MFI (activated cells) [3]: 2580 MFI

B9: "L1H2" CAR (humanized MUC1-C scFv chimeric antigen receptor) (other)
chain: EILLTQSPDFQSVTPKEKVTFTCRASQSIGTSIHWYQQKPNQSPKLLIKYASESISGVPSRFSGSGSGTDFTLTINSLESEDIATYYCQQSNNWPLTFGQGTKLEIKGGGGSGGGGSGGGGSQVQLVQSGAEVKKPGSSVKISCKTSGYAFSNFWMNWVRQAPGQGLEWIGQIYPGDGDTNYNGKFKGRVTLTADKSTSTAYMELSSLRSEATAVYFCARSYYRSAWFAYWGQGTLVTVSSTTTPAPRPPTPAPTIASQPLSLRPEACRPAAGGAVHTRGLDFACDIYIWAPLAGTCGVLLLSLVITLYCKRGRKKLLYIFKQPFMRPVQTTQEEDGCSCRFPEEEEGGCELRVKFSRSADAPAYKQGQNQLYNELNLGRREEYDVLDKRRGRDPEMGGKPRRKNPQEGLYNELQKDKMAEAYSEIGMKGERRRGKGHDGLYQGLSTATKDTYDALHMQALPPR
Target cell killing area under the curve (AUC) [1]: 466
MFI (non-activated cells) [2]: 720 MFI
MFI (activated cells) [3]: 3030 MFI

Reference: patent US20230079955A1 (POSEIDA THERAPEUTICS, published 2023)
